Where no end group is shown, it is not given here.
Columns and labels:
estrogen receptor α (ER) = estrogen receptor α (ER) (Homo sapiens, UniProt P03372); assay: Phage ELISA competition on immobilized estrogen receptor
UL44 = target: T1, UL44 (Human cytomegalovirus, UniProt P16790); assay: Phage ELISA competition on immobilized GSTUL44, UL44-specific phage; type: binding; conditions: various concentrations of competitor
T1 construct: made in house; host or cells: E. coli DH5aF′
Experimental: (§1) To map the. binding site for the UL44 specific phage displaying the constrained peptide from the X10C library, we competed this phage for binding with linear double stranded DNA. To show the specificity of binding for the substrates and the phage, both phage were competed with both substrates. Microtiter plates were coated with GSTUL44 protein and blocked as described above. Phage specific for either the GST portion or the UL44 portion of the fusion were then added to separate wells and at the same time various concentrations of either GSH or DNA were added. It is important to keep in mind that these phage were isolated from the same affinity selection run.

[1] = target: T2, GST portion of the GSTUL44 fusion (Schistosoma japonicum, UniProt P08515); assay: Phage ELISA competition on immobilized GSTUL44, GST-specific phage; type: binding; conditions: various concentrations of competitor
T2 construct: made in house; host or cells: E. coli DH5aF′
Experimental: as §1

[2] = target: T3, Agrobacterium faecalis beta-glucosidase (Agrobacterium sp., UniProt P12614); assay: Phage ELISA competition with conduritol on beta-glucosidase; type: binding; conditions: 3 mM conduritol for 3 hours
T3 sequence (P12614 1-459): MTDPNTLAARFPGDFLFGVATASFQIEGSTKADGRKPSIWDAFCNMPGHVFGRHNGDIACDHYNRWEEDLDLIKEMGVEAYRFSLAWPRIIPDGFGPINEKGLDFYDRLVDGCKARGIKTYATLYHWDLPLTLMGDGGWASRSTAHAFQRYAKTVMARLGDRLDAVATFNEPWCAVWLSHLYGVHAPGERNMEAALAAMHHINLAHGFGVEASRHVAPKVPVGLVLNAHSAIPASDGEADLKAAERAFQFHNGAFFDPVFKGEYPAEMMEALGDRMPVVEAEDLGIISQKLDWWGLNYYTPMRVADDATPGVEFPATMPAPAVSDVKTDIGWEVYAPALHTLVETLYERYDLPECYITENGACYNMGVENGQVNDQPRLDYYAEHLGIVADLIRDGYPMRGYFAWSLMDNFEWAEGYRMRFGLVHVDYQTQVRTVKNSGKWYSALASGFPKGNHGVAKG
Experimental: For the first method of affinity purification, phage libraries were mixed with 1 μg biotinylated target protein in solution and allowed to incubate at room temperature for 4 hours. Phage:protein complexes were then captured on streptavidin paramagnetic beads (Promega, cat#Z5482) by adding beads and incubating the tubes while rotating at room temperature for 30 minutes. The complexes were then drawn to the sides of the tubes using a magnet and the beads were washed with TBST containing 5 mM biotin. Beads were washed once in the first round of panning and 3 times for each additional round. Phage were eluted and amplified using the sequential procedure described in example 3. In the second method of affinity purification, phage libraries were mixed with 1 μg biotinylated target protein that was first captured on streptavidin paramagnetic beads. After the protein was bound, the beads were washed once with TBST containing 5 mM biotin to block the remaining binding sites on streptavidin. The libraries and beads were then mixed at room temperature on a rotator for 4 hours and washed, eluted and amplified as above. Phage ELISAs were carried out by first coating a microtiter plate (Immulon4, Dynex) with 1 μg streptavidin, followed by blocking with BSA. Biotinylated protein was then added to the wells and allowed to bind to the streptavidin for 1 hour. […]

GST-UL44 = target: T4, GST-UL44 (Human cytomegalovirus, UniProt P16790); assay: Enzyme Linked Spectrophotometric Assay (ELSA) for CMV UL44; type: binding
T4 construct: made in house; host or cells: E. coli DH5aF′
Experimental: IMMULON-4 (cat.#011-010-3855) 96-well microtitration test plates were purchased from Dynatech. Bovine serum, albumin (BSA) (A2153), Streptavidin alkaline phosphatase (SA-AP) (S2890), TWEEN-20 detergent (P1379), and p-nitrophenyl phosphate tablets (pNPP) (N-1891, N-2770) were purchased from Sigma. Phosphate buffered saline (PBS) (21600-010) was obtained from Gibco-BRL. Ultrapure glycerol (#16374) was purchased from USB. Biotinylated surrogate ligands were prepared as a 1 mM stock solution in the appropriate solvent (H2O or 10% acetonitrile). SA-AP was prepared as a 1 mg/ml stock solution in PBS containing 10% glycerol and stored in aliquots at −80° C.
Target protein was immobilized in microtiter wells by incubating 0.5-2.0 μg per well in 100 μl of 0.1 M NaHCO3 overnight at 4° C. […] During the 1 hour blocking period, the SA-AP:surrogate ligand conjugate was prepared by mixing 2 μg SA-AP and 50 pmol biotinylated surrogate ligand for each well of target protein. (This corresponds to a 1:1 ratio of biotinylated peptide to biotin binding sites.) The mixture was incubated at room temperature for 15-20 minutes and then diluted with Tris-buffered saline-TWEEN-20 detergent (TBST) 10 mM Tris-HCl, pH 8.0, 150 mM NaCl, 0.05% TWEEN-20 detergent such that there was 100 μl of conjugate per well. […]
After blocking, the wells were washed once with 200 μl TBST. […] The absorbance was read at 405 nm.

[3] = target: T5, Yeast alcohol dehydrogenase (yeast), P00330; assay: cross reactivity phage ELISA
T5 chain: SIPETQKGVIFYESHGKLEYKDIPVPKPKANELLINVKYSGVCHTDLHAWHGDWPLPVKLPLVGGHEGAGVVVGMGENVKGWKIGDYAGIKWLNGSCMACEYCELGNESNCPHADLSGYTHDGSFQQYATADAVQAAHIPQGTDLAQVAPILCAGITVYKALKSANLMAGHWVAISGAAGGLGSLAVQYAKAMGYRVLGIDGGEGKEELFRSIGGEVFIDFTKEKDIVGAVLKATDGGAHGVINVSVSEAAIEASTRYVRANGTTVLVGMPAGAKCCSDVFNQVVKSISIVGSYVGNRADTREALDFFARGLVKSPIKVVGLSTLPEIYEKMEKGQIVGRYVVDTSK

[4] = target: T6, carboxypeptidase B from pig pancreas (pig), P09955; assay: cross reactivity phage ELISA
T6 chain: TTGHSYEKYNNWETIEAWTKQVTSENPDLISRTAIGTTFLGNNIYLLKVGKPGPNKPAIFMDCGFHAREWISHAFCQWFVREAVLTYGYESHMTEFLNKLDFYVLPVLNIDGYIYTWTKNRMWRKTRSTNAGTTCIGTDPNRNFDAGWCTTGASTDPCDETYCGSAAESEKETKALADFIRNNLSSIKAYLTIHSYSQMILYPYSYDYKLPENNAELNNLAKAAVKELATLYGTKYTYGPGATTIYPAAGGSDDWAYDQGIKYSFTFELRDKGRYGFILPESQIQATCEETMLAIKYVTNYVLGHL

[5] = target: T7, E. coli proline tRNA synthetase (E. coli), P16659; assay: tRNA charging (enzyme activity) assay, competitive in respect to proline
T7 chain: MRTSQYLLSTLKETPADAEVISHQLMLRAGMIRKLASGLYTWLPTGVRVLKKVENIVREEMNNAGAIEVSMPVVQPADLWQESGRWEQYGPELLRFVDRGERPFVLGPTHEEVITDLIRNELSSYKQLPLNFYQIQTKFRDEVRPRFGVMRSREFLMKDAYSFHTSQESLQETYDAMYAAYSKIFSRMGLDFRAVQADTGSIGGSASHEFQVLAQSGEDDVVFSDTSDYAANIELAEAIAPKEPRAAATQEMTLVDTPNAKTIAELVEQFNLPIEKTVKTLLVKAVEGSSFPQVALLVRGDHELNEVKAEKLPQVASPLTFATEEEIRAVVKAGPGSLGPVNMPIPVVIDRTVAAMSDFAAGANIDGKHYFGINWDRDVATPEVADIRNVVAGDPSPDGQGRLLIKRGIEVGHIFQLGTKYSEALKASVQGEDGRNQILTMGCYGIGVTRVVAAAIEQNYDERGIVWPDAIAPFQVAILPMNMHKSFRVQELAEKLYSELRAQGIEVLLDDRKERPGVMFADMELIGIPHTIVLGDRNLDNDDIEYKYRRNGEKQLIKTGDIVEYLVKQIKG

[6] = target: T7, E. coli proline tRNA synthetase (E. …); assay: cell-based or functional assay

T4 sequence (P16790 whole entry): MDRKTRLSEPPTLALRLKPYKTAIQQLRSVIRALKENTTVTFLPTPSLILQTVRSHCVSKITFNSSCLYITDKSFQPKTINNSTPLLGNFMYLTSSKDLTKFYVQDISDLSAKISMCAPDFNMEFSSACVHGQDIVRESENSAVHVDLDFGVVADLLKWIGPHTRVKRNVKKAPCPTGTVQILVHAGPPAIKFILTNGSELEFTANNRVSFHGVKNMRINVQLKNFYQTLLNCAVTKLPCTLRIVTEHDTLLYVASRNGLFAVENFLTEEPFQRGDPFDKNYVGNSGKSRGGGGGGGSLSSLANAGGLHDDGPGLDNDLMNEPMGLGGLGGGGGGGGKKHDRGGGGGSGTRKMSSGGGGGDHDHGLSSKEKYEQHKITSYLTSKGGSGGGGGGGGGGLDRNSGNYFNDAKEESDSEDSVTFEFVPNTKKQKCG
estrogen receptor α (ER), sequence (P03372 whole entry): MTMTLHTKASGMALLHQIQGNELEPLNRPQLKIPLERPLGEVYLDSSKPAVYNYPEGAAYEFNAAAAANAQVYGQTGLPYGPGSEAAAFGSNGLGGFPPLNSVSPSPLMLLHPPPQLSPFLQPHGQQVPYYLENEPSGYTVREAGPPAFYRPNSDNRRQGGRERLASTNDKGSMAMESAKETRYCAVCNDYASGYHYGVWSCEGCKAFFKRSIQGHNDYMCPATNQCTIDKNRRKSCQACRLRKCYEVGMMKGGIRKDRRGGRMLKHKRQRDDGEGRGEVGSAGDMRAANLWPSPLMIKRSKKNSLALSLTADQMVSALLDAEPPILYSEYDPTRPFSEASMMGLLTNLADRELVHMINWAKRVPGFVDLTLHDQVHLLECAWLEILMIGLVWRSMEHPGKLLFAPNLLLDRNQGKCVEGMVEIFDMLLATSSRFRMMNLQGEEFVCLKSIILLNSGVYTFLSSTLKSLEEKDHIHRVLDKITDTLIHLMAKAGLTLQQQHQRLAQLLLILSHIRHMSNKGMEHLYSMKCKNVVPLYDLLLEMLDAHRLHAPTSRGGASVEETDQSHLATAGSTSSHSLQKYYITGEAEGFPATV
T2 sequence (P08515 whole entry, the tested form may be a part): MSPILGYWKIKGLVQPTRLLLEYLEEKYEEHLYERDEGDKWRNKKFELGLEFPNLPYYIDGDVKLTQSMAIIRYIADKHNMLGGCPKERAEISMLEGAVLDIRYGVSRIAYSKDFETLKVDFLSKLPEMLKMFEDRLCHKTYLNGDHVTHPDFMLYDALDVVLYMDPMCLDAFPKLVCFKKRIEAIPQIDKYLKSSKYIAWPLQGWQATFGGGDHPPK
T1 sequence (P16790 whole entry): as the sequence (P16790 whole entry) above

4-hydroxytamoxifen [reference compound]
competition with ER binding phage selected in the absence of estradiol (estrogen receptor α (ER)): does not inhibit

N[C@@H](CCC(=O)N[C@@H](CS)C(=O)NCC(=O)O)C(=O)O [GSH, glutathione]
binding of UL44 specific phage (X10C peptide) to GSTUL44 in presence of competitor (UL44): no effect
binding of GST specific phage to GSTUL44 in presence of competitor [1]: competed in a dose dependent fashion

O[C@@H]1[C@H](O)[C@@H](O)C=C[C@H]1O [conduritol]
binding of phage from group 1 after conduritol [2]: unaffected
binding of phage from group 2 after conduritol [2]: inhibited

Biotin-H-Ser-Gly-Ser-Gly-Glu-His-Val-Cys-Ser-Trp-Gly-Trp-Gly-Arg-Cys-OH [UL44 BioKey]
specificity of binding of biotinylated peptide (GST-UL44; tested on streptavidin, GST-UL44, GST, GST-SrcSH3): binds specifically to UL44

H-Ser-Gly-Ser-Gly-Glu-His-Val-Cys-Ser-Trp-Gly-Trp-Gly-Arg-Cys-OH (H-SGSGEHVCSWGWGRC-OH; cysteine pairing not given here) [non-biotinylated UL44 peptide]
competition of biotinylated UL44 peptide binding (GST-UL44; self-competition): competed specifically

W L D G L P L Y H E V (WLDGLPLYHEV) [Peptide 5]
effect of antiestrogens on phage binding to ER (estrogen receptor α (ER); phage selected with estradiol, 100 μM tamoxifen, nafoxidine, clomiphene): S S L T S R D F G S W Y A S R * (SEQ ID NO:156)

SVSVGMKPSPRP (modifications not checked)
fold ELISA signal on the specific target vs any other target tested [3]: > 10 fold

SSLLNESRLQWSTSR (modifications not checked)
fold ELISA signal on the specific target vs any other target tested [3]: > 10 fold

SSFRELKPGWWSYSR (modifications not checked)
fold ELISA signal on the specific target vs any other target tested [4]: > 10 fold

SRVCAIWPDLDGCSR (not fully specified; cysteine pairing not given here) [non-biotinylated ProRS peptide]
Ki [5]: > 500 µM
charging assay (enzymatic activity of the target) [6]: 50 % inhibition

SSSFKPWPIYLGSSR (modifications not checked)
fold ELISA signal on the specific target vs any other target tested [3]: > 10 fold

SRLLEVSPGWWQMSR (modifications not checked)
fold ELISA signal on the specific target vs any other target tested [4]: > 10 fold

SSWQGNVLLGNWISR (modifications not checked)
fold ELISA signal on the specific target vs any other target tested [3]: > 10 fold

SSNYWWQSPVLSRHSR (modifications not checked)
fold ELISA signal on the specific target vs any other target tested [3]: > 10 fold

SSWGDYFNWRDGLSR (modifications not checked)
fold ELISA signal on the specific target vs any other target tested [4]: > 10 fold

SRQVEVFKPWPVYSR (modifications not checked)
fold ELISA signal on the specific target vs any other target tested [3]: > 10 fold
